These results are taken from article PMC2665095 (The Journal of Biological Chemistry, 2009).

The target in data set [1] is T1, PBS3 (AtGH3.12; His-PBS3) (Arabidopsis thaliana, UniProt Q9LYU4).
T1 sequence (Q9LYU4 1-575): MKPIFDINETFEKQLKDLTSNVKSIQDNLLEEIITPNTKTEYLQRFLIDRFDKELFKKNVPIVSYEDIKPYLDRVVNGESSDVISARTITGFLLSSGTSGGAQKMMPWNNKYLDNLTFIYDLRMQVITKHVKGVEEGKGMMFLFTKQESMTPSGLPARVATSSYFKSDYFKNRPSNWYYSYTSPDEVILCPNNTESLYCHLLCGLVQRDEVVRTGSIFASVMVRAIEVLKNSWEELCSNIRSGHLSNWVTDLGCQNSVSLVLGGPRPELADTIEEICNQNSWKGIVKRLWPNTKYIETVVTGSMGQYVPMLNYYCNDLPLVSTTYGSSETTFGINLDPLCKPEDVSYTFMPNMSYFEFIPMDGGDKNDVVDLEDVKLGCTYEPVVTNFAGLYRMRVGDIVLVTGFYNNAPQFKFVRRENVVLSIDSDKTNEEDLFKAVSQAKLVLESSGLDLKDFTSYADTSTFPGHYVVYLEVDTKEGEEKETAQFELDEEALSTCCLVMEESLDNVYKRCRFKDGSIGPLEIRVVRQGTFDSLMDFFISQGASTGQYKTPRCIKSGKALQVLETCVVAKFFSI
Put plainly: coupled adenylation assay. The class given is biochemical. The settings on record: 150 μM pABA, 5 mM ATP, 5 mM MgCl2, pH 7.4.

Data set [2] concerns the target T1, PBS3 (AtGH3.12; His-PBS3). Put plainly: HPLC of pABA-Glu formation. The class given is biochemical.
Substrate in data set [3]: C=C(O[C@H]1C=CC=C(C(=O)O)[C@@H]1O)C(=O)O
Briefly: coupled spectrophotometric assay. Format: biochemical, Pseudomonas aeruginosa. Particulars: modified ICS assay conditions (100 mM Tris, pH 7.7).

Substrate in data set [4]: Nc1ccc(C(=O)O)cc1
Put plainly: purified protein. The settings on record: 10 mM Glu, 5 mM ATP, 5 mM MgCl2, pH 8.5.

Substrate in data set [5]: Nc1ncnc2c1ncn2[C@@H]1O[C@H](COP(=O)(O)OP(=O)(O)OP(=O)(O)O)[C@@H](O)[C@H]1O
Put plainly: purified protein. The settings on record: with 10 mM 4-HBA, Mg2+, pH 7.4, 30 °C.

Substrate in data set [6]: O=C(O)c1ccc(O)cc1
Briefly: purified protein. The settings on record: 10 mM Glu, 5 mM ATP, 5 mM MgCl2, pH 8.5.

Substrate in data set [7]: O=C(O)c1ccccc1
Briefly: purified protein. Particulars: 10 mM Glu, 5 mM ATP, 5 mM MgCl2, pH 8.5.

In the case of `O=C(O)c1cc(Cl)nc(Cl)c1` [INA], the “Fractional inhibition (300 μM)” value in data set [1] turned out to be 0.70 fraction.
The IC50 is the midpoint of a concentration-inhibition curve. High values mean a need for much substance, low ones inhibition by little substance. Molecule `O=C(O)c1ccccc1O` [salicylate] registered an IC50 in data set [2] of around 15 µM.

B1: PchB (isochorismate pyruvate lyase) (Pseudomonas aeruginosa PAO1) (protein)
chain: MKTPEDCTGLADIREAIDRIDLDIVQALGRRMDYVKAASRFKASEAAIPAPERVAAMLPERARWAEENGLDAPFVEGLFAQIIHWYIAEQIKYWRQTRGAA
Broadly, the Km is the substrate concentration at which the rate is half of its maximum. On to B1, for which the Km in data set [3] was 60 µM.

B2: PBS3 (AtGH3.12; His-PBS3) (Arabidopsis thaliana) (protein)
chain: MKPIFDINETFEKQLKDLTSNVKSIQDNLLEEIITPNTKTEYLQRFLIDRFDKELFKKNVPIVSYEDIKPYLDRVVNGESSDVISARTITGFLLSSGTSGGAQKMMPWNNKYLDNLTFIYDLRMQVITKHVKGVEEGKGMMFLFTKQESMTPSGLPARVATSSYFKSDYFKNRPSNWYYSYTSPDEVILCPNNTESLYCHLLCGLVQRDEVVRTGSIFASVMVRAIEVLKNSWEELCSNIRSGHLSNWVTDLGCQNSVSLVLGGPRPELADTIEEICNQNSWKGIVKRLWPNTKYIETVVTGSMGQYVPMLNYYCNDLPLVSTTYGSSETTFGINLDPLCKPEDVSYTFMPNMSYFEFIPMDGGDKNDVVDLEDVKLGCTYEPVVTNFAGLYRMRVGDIVLVTGFYNNAPQFKFVRRENVVLSIDSDKTNEEDLFKAVSQAKLVLESSGLDLKDFTSYADTSTFPGHYVVYLEVDTKEGEEKETAQFELDEEALSTCCLVMEESLDNVYKRCRFKDGSIGPLEIRVVRQGTFDSLMDFFISQGASTGQYKTPRCIKSGKALQVLETCVVAKFFSI
As usually defined, the kcat is the number of substrate molecules converted per active site and unit of time at saturation. In general, kcat/Km refers to the turnover number divided by the Michaelis constant. Turning to B2, the Km in “purified protein [4]” was 153 µM; in “purified protein [5]” it was 791 µM; in the data set “purified protein [6]”, 459 µM; in the data set “purified protein [7]”, 867 µM. The figures for the kcat in “purified protein [4]”, in the data set “purified protein [6]” and in “purified protein [7]” were 0.0457 s⁻¹, 0.339 s⁻¹ and 0.066 s⁻¹, respectively. Further, the kcat/Km in “purified protein [4]” is 298 M⁻¹ s⁻¹; in “purified protein [6]” it was 740 M⁻¹ s⁻¹; in “purified protein [7]” it was 76.7 M⁻¹ s⁻¹.
